Assay results taken from PMC7608686, “The interaction of DNA repair factors ASCC2 and ASCC3 is affected by somatic cancer mutations” (Nature Communications, 2020).
Ends that are not written are not given here.

T1: ASCC2^1-434 (human, UniProt Q9H1I8 1-434)
T1 construct: source: E. coli BL21 (DE3), purified (Ni-NTA, SEC); not shown: His6, N-terminal, cleaved
T1 sequence (looked up): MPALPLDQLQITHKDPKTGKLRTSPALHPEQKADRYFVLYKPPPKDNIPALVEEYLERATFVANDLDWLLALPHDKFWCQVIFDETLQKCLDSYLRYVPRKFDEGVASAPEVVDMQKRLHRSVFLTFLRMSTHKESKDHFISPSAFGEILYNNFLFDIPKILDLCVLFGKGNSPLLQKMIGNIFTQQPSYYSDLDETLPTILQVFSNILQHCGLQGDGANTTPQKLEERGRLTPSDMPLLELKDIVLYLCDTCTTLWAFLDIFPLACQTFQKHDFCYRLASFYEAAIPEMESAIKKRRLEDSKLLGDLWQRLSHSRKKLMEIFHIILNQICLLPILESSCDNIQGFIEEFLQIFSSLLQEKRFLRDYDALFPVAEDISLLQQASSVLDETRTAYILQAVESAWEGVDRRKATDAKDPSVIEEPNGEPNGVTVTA

T2: ASCC2^1-434 (human, UniProt Q9H1I8 1-434)
T2 chain: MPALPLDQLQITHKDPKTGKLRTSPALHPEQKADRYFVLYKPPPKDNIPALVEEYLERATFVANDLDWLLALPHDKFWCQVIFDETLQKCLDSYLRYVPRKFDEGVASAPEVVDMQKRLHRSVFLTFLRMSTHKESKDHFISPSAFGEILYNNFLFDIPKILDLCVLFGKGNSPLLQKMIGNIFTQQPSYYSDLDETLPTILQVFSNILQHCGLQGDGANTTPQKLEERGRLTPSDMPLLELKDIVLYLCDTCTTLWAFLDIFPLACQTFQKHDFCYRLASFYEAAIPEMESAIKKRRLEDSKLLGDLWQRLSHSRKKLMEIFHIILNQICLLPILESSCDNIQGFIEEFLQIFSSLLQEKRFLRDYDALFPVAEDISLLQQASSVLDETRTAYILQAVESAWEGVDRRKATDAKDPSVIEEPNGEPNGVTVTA

T3: Full-length ASCC2 (ASCC2^FL) (human, UniProt Q9H1I8 1-757)
T3 construct: from a synthetic gene (GeneArt); TEV-cleavable tag; source: insect cells (High Five), recombinant, purified (Ni-NTA, SEC); not shown: His10, N-terminal, cleaved
T3 sequence (looked up): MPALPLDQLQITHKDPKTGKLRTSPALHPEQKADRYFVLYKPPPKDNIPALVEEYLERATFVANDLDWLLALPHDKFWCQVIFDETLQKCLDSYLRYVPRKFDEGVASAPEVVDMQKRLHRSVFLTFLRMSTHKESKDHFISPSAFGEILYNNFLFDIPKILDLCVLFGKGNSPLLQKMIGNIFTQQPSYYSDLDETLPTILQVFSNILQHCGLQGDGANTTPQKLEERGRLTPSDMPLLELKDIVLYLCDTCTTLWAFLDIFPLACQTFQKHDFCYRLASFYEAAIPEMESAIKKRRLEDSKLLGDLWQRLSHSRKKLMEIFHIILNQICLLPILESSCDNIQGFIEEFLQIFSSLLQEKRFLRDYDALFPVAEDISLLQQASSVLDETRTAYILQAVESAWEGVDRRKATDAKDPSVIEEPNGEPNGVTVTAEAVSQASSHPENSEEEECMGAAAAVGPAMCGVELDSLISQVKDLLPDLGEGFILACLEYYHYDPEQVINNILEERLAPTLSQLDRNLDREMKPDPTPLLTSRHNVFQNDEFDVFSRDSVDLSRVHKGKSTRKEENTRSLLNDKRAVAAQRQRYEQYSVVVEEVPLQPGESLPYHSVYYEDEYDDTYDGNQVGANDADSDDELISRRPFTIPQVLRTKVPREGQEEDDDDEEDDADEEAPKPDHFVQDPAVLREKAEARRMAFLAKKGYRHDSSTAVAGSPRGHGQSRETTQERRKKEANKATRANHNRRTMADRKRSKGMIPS


What was measured:
[1] = biological target: T1, ASCC2^1-434; experiment: ITC; iTC200; ASCC3 variant (10 µM) in the sample cell, ASCC2 variant (100 µM) in the syringe; 20 mM HEPES-NaOH, pH 7.5, 100 mM NaCl; 25 °C; stoichiometry fixed to 1; conditions: both partners purified
[2] = biological target: T2, ASCC2^1-434; experiment: ITC
[3] = biological target: T1, ASCC2^1-434; experiment: ITC; iTC200; ASCC3^1-22 peptide (10-15 µM) in the sample cell, ASCC2^1-434 (200 µM or 400 µM) in the syringe; 20 mM HEPES-NaOH, pH 7.5, 100 mM NaCl; 25 °C; stoichiometry fixed to 1; conditions: both partners purified
[4] = biological target: T3, Full-length ASCC2 (ASCC2^FL); experiment: ITC; iTC200; ASCC3 variant (10 µM) in the sample cell, ASCC2 variant (100 µM) in the syringe; 20 mM HEPES-NaOH, pH 7.5, 100 mM NaCl; 25 °C; stoichiometry fixed to 1; conditions: both partners purified

Binder | Kd [1] [nM] | Kd [2] [nM] | other results
MALPLLTGALRSFSNVTKQDNY-NH2 [ASCC3^1-22 peptide R5L] | – | 15400 | –
ASCC3^16-197 (domain or fragment, human, UniProt Q8N3C0 16-197, looked up, also called partial N-arm deletion variant; source: E. coli BL21 (DE3), purified (Ni-NTA, SEC); not shown: His6, N-terminal, cleaved) VTKQDNYNEEVADLKIKRSKLHEQVLDLGLTWKKIIKFLNEKLEKSKMQSINEDLKDILHAAKQIVGTDNGREAIESGAAFLFMTFHLKDSVGHKETKAIKQMFGPFPSSSATAACNATNRIISHFSQDDLTALVQMTEKEHGDRVFFGKNLAFSFDMHDLDHFDELPINGETQKTISLDYK | 483 | – | –
MALPRLTGALRSFSNVTKQDNY-NH2 (peptide, UniProt Q8N3C0 1-22, looked up, ASCC3, human, N-terminal 22 residues; also called WT ASCC3^1-22; source: synthetic peptide (GL biochem)) [ASCC3^1-22 peptide, wild type] | – | – | Kd [3]: 2000 nM
ASCC3 N-terminal region (ASCC3^NTR; residues 1-400) (domain or fragment, human, UniProt Q8N3C0 1-400, looked up, ASCC3, human, N-terminal region, residues 1-400; The results say insect cells; source: insect cells, recombinant, purified (Ni-NTA; SEC step omitted); not shown: His10, N-terminal, cleaved) MALPRLTGALRSFSNVTKQDNYNEEVADLKIKRSKLHEQVLDLGLTWKKIIKFLNEKLEKSKMQSINEDLKDILHAAKQIVGTDNGREAIESGAAFLFMTFHLKDSVGHKETKAIKQMFGPFPSSSATAACNATNRIISHFSQDDLTALVQMTEKEHGDRVFFGKNLAFSFDMHDLDHFDELPINGETQKTISLDYKKFLNEHLQEACTPELKPVEKTNGSFLWCEVEKYLNSTLKEMTEVPRVEDLCCTLYDMLASIKSGDELQDELFELLGPEGLELIEKLLQNRITIVDRFLNSSNDHRFQALQDNCKKILGENAKPNYGCQVTIQSEQEKQLMKQYRREEKRIARREKKAGEDLEVSEGLMCFDPKELRIQREQALLNARSVPILSRQRDADVEKI | – | – | Kd [4]: 3.5 nM

Further lines, with some results ahead:

Kd [1] [nM] | Kd [2] [nM] | Binder | other results
3.8 | – | ASCC3^1-197 (domain or fragment, human, UniProt Q8N3C0 1-197, looked up, source: E. coli BL21 (DE3), purified (Ni-NTA, SEC); not shown: His6, N-terminal, cleaved) MALPRLTGALRSFSNVTKQDNYNEEVADLKIKRSKLHEQVLDLGLTWKKIIKFLNEKLEKSKMQSINEDLKDILHAAKQIVGTDNGREAIESGAAFLFMTFHLKDSVGHKETKAIKQMFGPFPSSSATAACNATNRIISHFSQDDLTALVQMTEKEHGDRVFFGKNLAFSFDMHDLDHFDELPINGETQKTISLDYK | –
– | 43800 | MALPHLTGALRSFSNVTKQDNY-NH2 [ASCC3^1-22 peptide R5H] | –
